One substance from publication PMC4725753 can be followed below.

In this assay the target is the microbial proteins (competition ELISA with heparin, data not shown). The assay is described as follows: ELISA; data not shown; immobilised microbial proteins incubated with vitronectin (5 μg/ml) that was pre-incubated with heparin (10 μM).

“vitronectin purified from human plasma (natural protein)” had a percent inhibition by heparin (10 μM) of 68 to 89%.
